Laboratory results taken from publication PMC7588459 (Scientific Reports, 2020).

B1: m102.4 VH K31A (antibody, V domains shown)
VH: EVQVIQSGADVKKPGSSVKVSCKSSGGTFSAYAINWVRQAPGQGLEWMGGIIPILGIANYAQKFQGRVTITTDESTSTAYMELSSLRSEDTAVYYCARGWGREQLAPHPSQYYYYYYGMDVWGQGTTVTVSS
VL: EIVMTQSPGTLSLAPGERATLSCWASQSVRNNYLAWYQQKPGQAPRLVIYNGSTRATGIPDRFSGSGSGTDFTLTISRLDPEDFAVYYCQQYGNSRRVTFGGGTKVEIK
B2: m102.4 VH I54A (antibody, V domains shown)
VH: EVQVIQSGADVKKPGSSVKVSCKSSGGTFSKYAINWVRQAPGQGLEWMGGIIPALGIANYAQKFQGRVTITTDESTSTAYMELSSLRSEDTAVYYCARGWGREQLAPHPSQYYYYYYGMDVWGQGTTVTVSS
VL: EIVMTQSPGTLSLAPGERATLSCWASQSVRNNYLAWYQQKPGQAPRLVIYNGSTRATGIPDRFSGSGSGTDFTLTISRLDPEDFAVYYCQQYGNSRRVTFGGGTKVEIK
B3: m102.4 VH L55A (antibody, V domains shown)
VH: EVQVIQSGADVKKPGSSVKVSCKSSGGTFSKYAINWVRQAPGQGLEWMGGIIPIAGIANYAQKFQGRVTITTDESTSTAYMELSSLRSEDTAVYYCARGWGREQLAPHPSQYYYYYYGMDVWGQGTTVTVSS
VL: EIVMTQSPGTLSLAPGERATLSCWASQSVRNNYLAWYQQKPGQAPRLVIYNGSTRATGIPDRFSGSGSGTDFTLTISRLDPEDFAVYYCQQYGNSRRVTFGGGTKVEIK
B4: m102.4 VH G56A (antibody, V domains shown)
VH: EVQVIQSGADVKKPGSSVKVSCKSSGGTFSKYAINWVRQAPGQGLEWMGGIIPILAIANYAQKFQGRVTITTDESTSTAYMELSSLRSEDTAVYYCARGWGREQLAPHPSQYYYYYYGMDVWGQGTTVTVSS
VL: EIVMTQSPGTLSLAPGERATLSCWASQSVRNNYLAWYQQKPGQAPRLVIYNGSTRATGIPDRFSGSGSGTDFTLTISRLDPEDFAVYYCQQYGNSRRVTFGGGTKVEIK
B5: m102.4 VH I57A (antibody, V domains shown)
VH: EVQVIQSGADVKKPGSSVKVSCKSSGGTFSKYAINWVRQAPGQGLEWMGGIIPILGAANYAQKFQGRVTITTDESTSTAYMELSSLRSEDTAVYYCARGWGREQLAPHPSQYYYYYYGMDVWGQGTTVTVSS
VL: EIVMTQSPGTLSLAPGERATLSCWASQSVRNNYLAWYQQKPGQAPRLVIYNGSTRATGIPDRFSGSGSGTDFTLTISRLDPEDFAVYYCQQYGNSRRVTFGGGTKVEIK
B6: m102.4 VH R102A (antibody, V domains shown)
VH: EVQVIQSGADVKKPGSSVKVSCKSSGGTFSKYAINWVRQAPGQGLEWMGGIIPILGIANYAQKFQGRVTITTDESTSTAYMELSSLRSEDTAVYYCARGWGAEQLAPHPSQYYYYYYGMDVWGQGTTVTVSS
VL: EIVMTQSPGTLSLAPGERATLSCWASQSVRNNYLAWYQQKPGQAPRLVIYNGSTRATGIPDRFSGSGSGTDFTLTISRLDPEDFAVYYCQQYGNSRRVTFGGGTKVEIK
B7: m102.4 VH E103A (antibody, V domains shown)
VH: EVQVIQSGADVKKPGSSVKVSCKSSGGTFSKYAINWVRQAPGQGLEWMGGIIPILGIANYAQKFQGRVTITTDESTSTAYMELSSLRSEDTAVYYCARGWGRAQLAPHPSQYYYYYYGMDVWGQGTTVTVSS
VL: EIVMTQSPGTLSLAPGERATLSCWASQSVRNNYLAWYQQKPGQAPRLVIYNGSTRATGIPDRFSGSGSGTDFTLTISRLDPEDFAVYYCQQYGNSRRVTFGGGTKVEIK
B8: m102.4 VH Q104A (antibody, V domains shown)
VH: EVQVIQSGADVKKPGSSVKVSCKSSGGTFSKYAINWVRQAPGQGLEWMGGIIPILGIANYAQKFQGRVTITTDESTSTAYMELSSLRSEDTAVYYCARGWGREALAPHPSQYYYYYYGMDVWGQGTTVTVSS
VL: EIVMTQSPGTLSLAPGERATLSCWASQSVRNNYLAWYQQKPGQAPRLVIYNGSTRATGIPDRFSGSGSGTDFTLTISRLDPEDFAVYYCQQYGNSRRVTFGGGTKVEIK
B9: m102.4 VH L105A (antibody, V domains shown)
VH: EVQVIQSGADVKKPGSSVKVSCKSSGGTFSKYAINWVRQAPGQGLEWMGGIIPILGIANYAQKFQGRVTITTDESTSTAYMELSSLRSEDTAVYYCARGWGREQAAPHPSQYYYYYYGMDVWGQGTTVTVSS
VL: EIVMTQSPGTLSLAPGERATLSCWASQSVRNNYLAWYQQKPGQAPRLVIYNGSTRATGIPDRFSGSGSGTDFTLTISRLDPEDFAVYYCQQYGNSRRVTFGGGTKVEIK
B10: m102.4 VH A106W (antibody, V domains shown)
VH: EVQVIQSGADVKKPGSSVKVSCKSSGGTFSKYAINWVRQAPGQGLEWMGGIIPILGIANYAQKFQGRVTITTDESTSTAYMELSSLRSEDTAVYYCARGWGREQLWPHPSQYYYYYYGMDVWGQGTTVTVSS
VL: EIVMTQSPGTLSLAPGERATLSCWASQSVRNNYLAWYQQKPGQAPRLVIYNGSTRATGIPDRFSGSGSGTDFTLTISRLDPEDFAVYYCQQYGNSRRVTFGGGTKVEIK
B11: m102.4 VH P107A (antibody, V domains shown)
VH: EVQVIQSGADVKKPGSSVKVSCKSSGGTFSKYAINWVRQAPGQGLEWMGGIIPILGIANYAQKFQGRVTITTDESTSTAYMELSSLRSEDTAVYYCARGWGREQLAAHPSQYYYYYYGMDVWGQGTTVTVSS
VL: EIVMTQSPGTLSLAPGERATLSCWASQSVRNNYLAWYQQKPGQAPRLVIYNGSTRATGIPDRFSGSGSGTDFTLTISRLDPEDFAVYYCQQYGNSRRVTFGGGTKVEIK
B12: m102.4 VH H108A (antibody, V domains shown)
VH: EVQVIQSGADVKKPGSSVKVSCKSSGGTFSKYAINWVRQAPGQGLEWMGGIIPILGIANYAQKFQGRVTITTDESTSTAYMELSSLRSEDTAVYYCARGWGREQLAPAPSQYYYYYYGMDVWGQGTTVTVSS
VL: EIVMTQSPGTLSLAPGERATLSCWASQSVRNNYLAWYQQKPGQAPRLVIYNGSTRATGIPDRFSGSGSGTDFTLTISRLDPEDFAVYYCQQYGNSRRVTFGGGTKVEIK
B13: m102.4 VH P109A (antibody, V domains shown)
VH: EVQVIQSGADVKKPGSSVKVSCKSSGGTFSKYAINWVRQAPGQGLEWMGGIIPILGIANYAQKFQGRVTITTDESTSTAYMELSSLRSEDTAVYYCARGWGREQLAPHASQYYYYYYGMDVWGQGTTVTVSS
VL: EIVMTQSPGTLSLAPGERATLSCWASQSVRNNYLAWYQQKPGQAPRLVIYNGSTRATGIPDRFSGSGSGTDFTLTISRLDPEDFAVYYCQQYGNSRRVTFGGGTKVEIK
B14: m102.4 VH S110A (antibody, V domains shown)
VH: EVQVIQSGADVKKPGSSVKVSCKSSGGTFSKYAINWVRQAPGQGLEWMGGIIPILGIANYAQKFQGRVTITTDESTSTAYMELSSLRSEDTAVYYCARGWGREQLAPHPAQYYYYYYGMDVWGQGTTVTVSS
VL: EIVMTQSPGTLSLAPGERATLSCWASQSVRNNYLAWYQQKPGQAPRLVIYNGSTRATGIPDRFSGSGSGTDFTLTISRLDPEDFAVYYCQQYGNSRRVTFGGGTKVEIK
B15: m102.4 VH Q111A (antibody, V domains shown)
VH: EVQVIQSGADVKKPGSSVKVSCKSSGGTFSKYAINWVRQAPGQGLEWMGGIIPILGIANYAQKFQGRVTITTDESTSTAYMELSSLRSEDTAVYYCARGWGREQLAPHPSAYYYYYYGMDVWGQGTTVTVSS
VL: EIVMTQSPGTLSLAPGERATLSCWASQSVRNNYLAWYQQKPGQAPRLVIYNGSTRATGIPDRFSGSGSGTDFTLTISRLDPEDFAVYYCQQYGNSRRVTFGGGTKVEIK
B16: m102.4 VH Y112A (antibody, V domains shown)
VH: EVQVIQSGADVKKPGSSVKVSCKSSGGTFSKYAINWVRQAPGQGLEWMGGIIPILGIANYAQKFQGRVTITTDESTSTAYMELSSLRSEDTAVYYCARGWGREQLAPHPSQAYYYYYGMDVWGQGTTVTVSS
VL: EIVMTQSPGTLSLAPGERATLSCWASQSVRNNYLAWYQQKPGQAPRLVIYNGSTRATGIPDRFSGSGSGTDFTLTISRLDPEDFAVYYCQQYGNSRRVTFGGGTKVEIK
B17: m102.4 VH Y113A (antibody, V domains shown)
VH: EVQVIQSGADVKKPGSSVKVSCKSSGGTFSKYAINWVRQAPGQGLEWMGGIIPILGIANYAQKFQGRVTITTDESTSTAYMELSSLRSEDTAVYYCARGWGREQLAPHPSQYAYYYYGMDVWGQGTTVTVSS
VL: EIVMTQSPGTLSLAPGERATLSCWASQSVRNNYLAWYQQKPGQAPRLVIYNGSTRATGIPDRFSGSGSGTDFTLTISRLDPEDFAVYYCQQYGNSRRVTFGGGTKVEIK
B18: m102.4 VH Y114A (antibody, V domains shown)
VH: EVQVIQSGADVKKPGSSVKVSCKSSGGTFSKYAINWVRQAPGQGLEWMGGIIPILGIANYAQKFQGRVTITTDESTSTAYMELSSLRSEDTAVYYCARGWGREQLAPHPSQYYAYYYGMDVWGQGTTVTVSS
VL: EIVMTQSPGTLSLAPGERATLSCWASQSVRNNYLAWYQQKPGQAPRLVIYNGSTRATGIPDRFSGSGSGTDFTLTISRLDPEDFAVYYCQQYGNSRRVTFGGGTKVEIK
B19: m102.4 VL R30A (antibody, V domains shown)
VH: EVQVIQSGADVKKPGSSVKVSCKSSGGTFSKYAINWVRQAPGQGLEWMGGIIPILGIANYAQKFQGRVTITTDESTSTAYMELSSLRSEDTAVYYCARGWGREQLAPHPSQYYYYYYGMDVWGQGTTVTVSS
VL: EIVMTQSPGTLSLAPGERATLSCWASQSVANNYLAWYQQKPGQAPRLVIYNGSTRATGIPDRFSGSGSGTDFTLTISRLDPEDFAVYYCQQYGNSRRVTFGGGTKVEIK
notes: also called LC:R30 to alanine

target: T1, Nipah virus attachment (receptor-binding) glycoprotein (GP), wild type (Nipah virus; strain of the assayed …, UniProt Q9IH62); test: ELISA; details: both partners purified
T1 construct: source: HEK 293-F FreeStyle, transiently transfected, purified from supernatant (Ni-NTA)

Question: B1 was tested. Which Kd did it give?
Answer: Its Kd is 0.08 nM.

Question: B2 was tested. Which Kd did it give?
Answer: The Kd was 0.13 nM.

Question: Which Kd does the source give for B3 here?
Answer: The Kd was 0.1 nM.

Question: For B4, which Kd is on record?
Answer: The Kd was 0.09 nM.

Question: With B5 as the binder, how does the Kd read?
Answer: The Kd was 0.1 nM.

Question: Which Kd does the source give for B6 here?
Answer: The Kd was 0.09 nM.

Question: B7 was tested. Which Kd did it give?
Answer: The Kd was 1.83 nM.

Question: How did the Kd turn out when B8 was run?
Answer: The Kd was 0.1 nM.

Question: How did the Kd turn out when B9 was run?
Answer: The Kd was 0.1 nM.

Question: With B10 as the binder, how does the Kd read?
Answer: The Kd was 4.95 nM.

Question: Which Kd does the source give for B11 here?
Answer: Its Kd is 0.09 nM.

Question: For B12, which Kd is on record?
Answer: Its Kd is 0.09 nM.

Question: For B13, which Kd is on record?
Answer: The Kd was 0.1 nM.

Question: Which Kd does the source give for B14 here?
Answer: Its Kd is 0.13 nM.

Question: For B15, which Kd is on record?
Answer: Its Kd is 0.08 nM.

Question: B16 was tested. Which Kd did it give?
Answer: Its Kd is 0.11 nM.

Question: With B17 as the binder, how does the Kd read?
Answer: The Kd was 0.12 nM.

Question: How did the Kd turn out when B18 was run?
Answer: Its Kd is 0.07 nM.

Question: How did the Kd turn out when B19 was run?
Answer: The Kd was 0.13 nM.
